The supplement of paper PMC10567573
± gives the standard deviation.

Assay: protein stability index of a GFP-peptide fusion (GPS, HEK-293T) (PSI 1-6); higher = more stable
[1] = treatment: DMSO, c terminus: a fixed tail appended
[2] = treatment: MLN4924 1 uM, 8 h, c terminus: a fixed tail appended
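Further: 24-mer peptide tiles fused after GFP, lentivirally expressed, FACS-sorted into six equal bins by GFP/DsRed ratio, decoded by Illumina sequencing, PSI is the read-weighted mean bin number.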

Sequence | protein stability index [1] | protein stability index [2] | protein stability index (treatment: DMSO, c terminus: native) | protein stability index (treatment: MLN4924 1 uM, 8 h, c terminus: native)
WPARVLDISLGQKEDGEPSWREAK [PWWP2B] | 4.18 ± 0.12 | 4.27 ± 0.11 | – | –
WTHDGIDINNNFPDLNTLLWEAED [CPXM2] | 3.44 ± 0.098 | 3.8 ± 0.45 | – | –
WTLRRTKELRKDYQGPGTRRLQEV [DYRK1B] | 3.11 ± 0.32 | 3.1 ± 0.32 | – | –
YAMGITECDNMLMLLSVSQSMSEE [SEPHS2] | 2.16 ± 0.31 | 2.44 ± 0.22 | – | –
YFFKRPYPFVLFYSKFHGLEMCVD [KMT2E] | 2.75 ± 1 | 3.19 ± 0.55 | – | –
YFFLYQYCSIHCSDRKQVRNIAN [CSTF3] | – | – | 3.03 ± 1.1 | 3.22 ± 0.71
YFTNRKVNSVCWASLNHLDSHILL [DCAF4] | 2.82 ± 0.56 | 2.42 ± 0.21 | – | –
YFVSESFEDAKEKMREFTKTIKRP [TPH1] | 3.15 ± 0.19 | 3.41 ± 0.14 | – | –
YGVASCEACKAFFKRTIQGSIEYS [ESRRA] | 2.34 ± 0.22 | 2.52 ± 0.072 | – | –
YIPRRLEEAAMQKCLVTEAQTLLR [RSAD1] | 2.34 ± 0.23 | 2.63 ± 0.17 | – | –
YIPVIKRALNSVPVIIAAVGTRQN [RHOBTB3] | 2.35 ± 0.52 | 2.24 ± 0.35 | – | –
YISETVLAIDAIHQLGFIHRDIKP [STK38L] | 2.33 ± 0.74 | 2.56 ± 0.24 | – | –
YLDLPGSRQGSAEALRALQEGLWL [PKD2L1] | 2.71 ± 0.27 | 2.64 ± 0.34 | – | –
YLNYYQGMLDVADESLTDLEAQPY [P3H4] | 2.8 ± 0.15 | 2.81 ± 0.14 | – | –
YLRYVRRLDFFEKPDYEYLRTLFT [CSNK1G1] | 2.34 ± 0.48 | 2.24 ± 0.38 | – | –
YPAMTFYSPAVMNYSIPSNVTNLE [ESR2] | 2.63 ± 0.61 | 2.93 ± 0.25 | – | –
YQHFLQDCVDGLFKEVKEKFKGWV [DLC1] | 2.26 ± 0.49 | 2.02 ± 0.11 | – | –
YQLADWCLHHICTNYNNVCRKFPR [RHOBTB2] | 2.25 ± 0.52 | 2.23 ± 0.14 | – | –
YQPLVTMDDAMERTVQSFRHLRRV [NSDHL] | 3.14 ± 0.24 | 3.22 ± 0.31 | – | –
YQRWIYRVDPTRVNEFGMSGEDPT [CLPTM1] | 2.6 ± 0.34 | 2.72 ± 0.3 | – | –
YQTEQSLRQLVESDINSLRRILDE [KRT33B] | 3.44 ± 0.16 | 3.61 ± 0.3 | – | –
YRERRDSDTYRCEERSPSFGEDYY [CLK3] | 4.37 ± 0.2 | 4.29 ± 0.21 | – | –
YRQHCTLELGSYIKDLSVVHSDLS [CTDNEP1] | 2.4 ± 0.41 | 2.34 ± 0.25 | – | –
YSYRRLGEEALSLQALDPQQCVDK [SLC22A15] | 4.05 ± 0.45 | 4.05 ± 0.31 | – | –
YVDIHTGLSGSGVAFVCAFSEALA [PYCR3] | 2.72 ± 1.2 | 2.4 ± 1 | – | –
YVTPSDFDQLKQFLTFDKQVLRFY [EFHC1] | 2.03 ± 0.32 | 2.28 ± 0.29 | – | –
YYKPGLLMMCFILPTLVPWYFWGE [SCD] | 3.24 ± 0.7 | 2.83 ± 0.52 | – | –
